Patent US20250042994A1 (HAINAN SIMCERE ZAIMING PHARMACEUTICAL, published 2025)

T1: murine CD19 protein (murine, UniProt P25918 17-287, limits assumed)
T1 construct: bought protein; also called commercial murine CD19
T1 sequence (looked up): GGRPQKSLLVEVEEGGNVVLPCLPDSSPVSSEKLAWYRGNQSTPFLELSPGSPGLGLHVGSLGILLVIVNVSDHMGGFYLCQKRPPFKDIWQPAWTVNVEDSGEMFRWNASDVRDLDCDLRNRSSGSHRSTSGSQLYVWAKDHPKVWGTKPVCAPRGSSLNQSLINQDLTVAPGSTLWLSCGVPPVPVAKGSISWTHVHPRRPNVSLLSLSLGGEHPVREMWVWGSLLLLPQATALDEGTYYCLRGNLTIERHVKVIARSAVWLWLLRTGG

T2: human CD19 exon1-3-his protein (human, UniProt P15391 20-186, limits assumed)
T2 construct: made in HEK293E cells; also called membrane-distal end; not shown: His tag
T2 sequence (looked up): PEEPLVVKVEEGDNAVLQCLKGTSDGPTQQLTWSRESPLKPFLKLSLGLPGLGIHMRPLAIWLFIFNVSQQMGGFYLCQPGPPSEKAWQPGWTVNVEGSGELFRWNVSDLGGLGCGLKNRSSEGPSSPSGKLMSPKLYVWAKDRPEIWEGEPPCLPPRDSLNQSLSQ


How the values were obtained:
[1] = target: T1, murine CD19 protein; test: ELISA
Procedure: Human CD19-his protein (purchased from ACROBiosystems, catalog number: CD9-H52H2) was diluted with PBS to a final concentration of 4 μg/mL, and then added to a 96-well ELISA plate at 100 μl/well. The plate was sealed with a plastic film and incubated overnight at 4° C., the plate was washed 2 times with PBS the next day, and then a blocking solution [PBS+2% (w/w) BSA] was added for blocking at room temperature for 2 h. The blocking solution was poured off, and 100 nM gradiently diluted CD19 chimeric antibody or control antibody was added at 50 μl/well. After incubation at 37° C. for 2 h, the plate was washed 3 times with PBS. […] TMB substrate was added at 50 μl/well, and incubated at room temperature for 10 min, and then a stop solution (1.0 N HCl) was added at 50 μl/well. The OD450 nm values were read by an ELISA microplate reader (Multimode Plate Reader, EnSight, purchased from Perkin Elmer).
In order to detect the species cross-binding activity of the chimeric antibodies, an ELISA plate was coated with commercial murine CD19 (ACROBiosystems, catalog number: 50510-M08H) and monkey CD19 (ACROBiosystems, catalog number: 90051-C08H), respectively, and the ELISA detection was performed according to the method in example 5.1. […]

[2] = target: T2, human CD19 exon1-3-his protein; test: ELISA, coated at 2 ug/mL

Binder | binding result [1] | binding result [2]
F3.121.4-L1H3 (antibody, mouse IgG1, kappa, murine IgG1 constant regions; also called humanized antibody of F3.121.4) heavy: EVQLVQSGAEVKKPGASVKVSCKASGYTFTNYWMHWVRQRPGQGLEWMGEIDPSDNYANYNQEFQGRVTITVDKSASTAYMELSSLRSEDTAVYYCARHDGYFGALDYWGQGTTVTVSSAKTTPPSVYPLAPGSAAQTNSMVTLGCLVKGYFPEPVTVTWNSGSLSSGVHTFPAVLQSDLYTLSSSVTVPSSTWPSETVTCNVAHPASSTKVDKKIVPRDCGCKPCICTVPEVSSVFIFPPKPKDVLTITLTPKVTCVVVDISKDDPEVQFSWFVDDVEVHTAQTQPREEQFNSTFRSVSELPIMHQDWLNGKEFKCRVNSAAFPAPIEKTISKTKGRPKAPQVYTIPPPKEQMAKDKVSLTCMITDFFPEDITVEWQWNGQPAENYKNTQPIMDTDGSYFVYSKLNVQKSNWEAGNTFTCSVLHEGLHNHHTEKSLSHSPGK light: EIVLTQSPATLSLSPGERATLSCSASSSISSNYLHWYQQKPGQAPRFLIYRTSNLASGIPARFSGSGSGTDFTLTISSLEPEDFAVYYCQQASSIPRMFTFGQGTKLEIKRADAAPTVSIFPPSSEQLTSGGASVVCFLNNFYPKDINVKWKIDGSERQNGVLNSWTDQDSKDSTYSMSSTLTLTKDEYERHNSYTCEATHKTSTSPIVKSFNRNEC | no binding | no binding
F3.121.4-L1H4 (antibody, mouse IgG1, kappa, murine IgG1 constant regions; also called humanized antibody of F3.121.4) heavy: EVQLQQSGAEVKKPGASVKVSCKASGYTFTNYWMHWVRQRPGQGLEWMGEIDPSDNYANYNQEFQGRVTITVDKSASTAYMELSSLRSEDTAVYYCARHDGYFGALDYWGQGTTVTVSSAKTTPPSVYPLAPGSAAQTNSMVTLGCLVKGYFPEPVTVTWNSGSLSSGVHTFPAVLQSDLYTLSSSVTVPSSTWPSETVTCNVAHPASSTKVDKKIVPRDCGCKPCICTVPEVSSVFIFPPKPKDVLTITLTPKVTCVVVDISKDDPEVQFSWFVDDVEVHTAQTQPREEQFNSTFRSVSELPIMHQDWLNGKEFKCRVNSAAFPAPIEKTISKTKGRPKAPQVYTIPPPKEQMAKDKVSLTCMITDFFPEDITVEWQWNGQPAENYKNTQPIMDTDGSYFVYSKLNVQKSNWEAGNTFTCSVLHEGLHNHHTEKSLSHSPGK light: EIVLTQSPATLSLSPGERATLSCSASSSISSNYLHWYQQKPGQAPRFLIYRTSNLASGIPARFSGSGSGTDFTLTISSLEPEDFAVYYCQQASSIPRMFTFGQGTKLEIKRADAAPTVSIFPPSSEQLTSGGASVVCFLNNFYPKDINVKWKIDGSERQNGVLNSWTDQDSKDSTYSMSSTLTLTKDEYERHNSYTCEATHKTSTSPIVKSFNRNEC | no binding | no binding
F3.121.4-L2H2 (antibody, mouse IgG1, kappa, V domains shown, murine IgG1 constant regions; also called humanized antibody of F3.121.4) VH: EVQLVQSGAEVKKPGASVKVSCKASGYTFTNYWMHWVRQAPGQGLEWMGEIDPSDNYANYNQEFQGRVTITVDKSASTAYMELSSLRSEDTAVYYCARHDGYFGALDYWGQGTTVTVSS VL: EIVLTQSPDFQSVTPKEKVTITCSASSSISSNYLHWYQQKPDQSPKLLIKRTSNLASGVPSRFSGSGSGTDFTLTINSLEAEDAATYYCQQASSIPRMFTFGQGTKLEIKR | no binding | no binding
F3.121.4-L2H1 (antibody, mouse IgG1, kappa, V domains shown, murine IgG1 constant regions; also called humanized antibody of F3.121.4) VH: EVQLVQSGAEVKKPGASVKVSCKASGYTFTNYWMHWVRQAPGQRLEWMGEIDPSDNYANYNQEFQGRVTITVDKSASTAYMELSSLRSEDTAVYYCARHDGYFGALDYWGQGTTVTVSS VL: EIVLTQSPDFQSVTPKEKVTITCSASSSISSNYLHWYQQKPDQSPKLLIKRTSNLASGVPSRFSGSGSGTDFTLTINSLEAEDAATYYCQQASSIPRMFTFGQGTKLEIKR | no binding | no binding
